Substitutions are numbered along the chain they refer to.
B1: REGN 5166 (antibody, human IgG4 S228P, kappa, V domains shown)
VH: QVQLVESGGGVVQPGRSLRLSCAASGFTFSAYWMHWVRQAPGKGLEWVAVISYDGSNKYYADSVKGRFTISRDHSKNTLYLQMNSLRAEDTAVYYCAKGDAYDSWRILLGGDYYGMDVWGQGTTVTVSS
VL: EIVLTQSPGTLSLSPGERATLSCRASQSVSSSYLAWYQQKPGQAPRPLIYGASSRATGIPDRFSGSGSGTDFTLTISRLEPEDFAVYYCQQGGDAPPYTFGGGTKVEIKR
notes: also called REGN 5166-L1
B2: REGN 5167 (antibody, human IgG4 S228P, kappa, V domains shown)
VH: QLQLQESGPGLVKPSETLSLTCTVSGGSITSSSYYWAWIRQPPGKGLEWIGKIYYSGSTHYNPSLKSRVTISVDTSKNQFSLKLSSVTAADTAVYYCARVGGHGYGDSAGLAFDIWGQGTMVTVSS
VL: EIVLTQSPGTLSLSPGERATLSCRASQSVSSAFLAWYQQKPGQAPRLLIYGASYRHTGIPDRFSGSGSGTDFTLTISRLEPEDFAVYYCQHYGVGPRTFGGGTKVEIKR
notes: also called REGN 5167-L1
B3: REGN 5168 (antibody, human IgG4 S228P, kappa, V domains shown)
VH: QVQLVQSGAEVKEPGASVKVSCKASGYTFAEYYMHWVRQAPGQGLEWMGAINPSGSHTSYAQKFQGRVTMTRDTSTSTVYMELSSLRSEDTAVYYCARSISGKRGGDYYGMDVWGQGTTVTVSS
VL: DIQMTQSPSTLSASVGDRVTITCRASQSISSWLAWYQQKPGKAPKLLIYKASSLESGVPSRFSGSGSGTEFTLTISSLQPDDFATYYCQQYSIFPFTFGGGTKVEIKR
notes: also called REGN 5168-L1

Target: T1, human ACVR1 extracellular domain expressed with a C-terminal myc-myc-hexahistidine tag (human)
T1 construct: also called hACVR1-mmh; hACVR1.mmh
T1 chain: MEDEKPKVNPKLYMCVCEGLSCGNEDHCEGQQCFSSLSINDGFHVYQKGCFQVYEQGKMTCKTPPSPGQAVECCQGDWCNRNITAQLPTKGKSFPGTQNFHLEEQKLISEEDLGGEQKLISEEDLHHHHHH
Experiment: SPR Biacore T200, mAb captured by anti-human Fc, hACVR1-mmh injected, 37C
Description: (§1) Equilibrium dissociation constants (KD) for ACVR1 binding to purified anti-ACVR1 monoclonal antibodies were determined using a real-time surface plasmon resonance (SPR) based Biacore T200 biosensor. All binding studies were performed in 10 mM HEPES, 150 mM NaCl, 3 mM EDTA, and 0.05% v/v surfactant Tween-20, pH 7.4 (HBS-EP) running buffer at […]. The Biacore CM5 sensor surface was first derivatized by amine coupling with a monoclonal mouse anti-human Fc antibody (REGN2567) to capture anti-ACVR1 monoclonal antibodies. Different concentrations of ACVR1 reagents, human ACVR1 extracellular domain expressed with a C-terminal myc-myc-hexahistidine tag (hACVR1-mmh; REGN3111, SEQ ID NO: 63), mouse ACVR1 extracellular domain expressed with a C-terminal myc-myc-hexahistidine tag (mACVR1-mmh; REGN3407, SEQ ID NO: 65), human ACVR1 extracellular domain expressed with a C-terminal mouse IgG2a Fc tag (hACVR1-mFc; REGN3112, SEQ ID NO: 64); and mouse ACVR1 extracellular domain expressed with a C-terminal mouse IgG2a Fc tag (mACVR1-mFc, R&D system), at concentrations ranging from 0.41 nM to 100 nM in a series of 3-fold dilutions prepared in HBS-EP running buffer were injected at a flow rate of 50 μL/min for 1.5 minutes. The dissociation of different ACVR1 reagents bound to anti-ACVR1 monoclonal antibodies was monitored for 20 minutes in HBS-EP running buffer. At the end of each cycle, the anti-ACVR1 monoclonal antibodies capture surface was regenerated using a 12 sec injection of 20 mM H3PO4. The association rate (ka) and dissociation rate (kd) were determined by fitting the real-time binding sensorgrams to a 1:1 binding model with mass transport limitation using Scrubber 2.0c curve-fitting software. Binding dissociation equilibrium constant (KD) and dissociative half-life (t½) were calculated from the kinetic rates as: […]
(§2) Binding kinetics parameters for different ACVR1 reagents to anti-ACVR1 monoclonal antibodies of the invention at 37° C. are shown in Table 5 through Table 8.

B1 and B2 are the same in “100 nM Ag Bound (RU)” value: 43 RU for the first, 43 RU for the second.

For B3, the “100 nM Ag Bound (RU)” value was 42 RU.

B1 and B2 are within 1.5-fold of each other in Kd: 0.26 nM for the first, 0.227 nM for the second.

Work on B3 yielded a Kd of 1.21 nM.

B1 and B2 are within 1.5-fold of each other in koff: 0.000176 s⁻¹ for the first, 0.000163 s⁻¹ for the second.

In the case of B3, the koff is reported as 0.00159 s⁻¹.

B1 and B2 are within 1.5-fold of each other in kon: 677000 M⁻¹ s⁻¹ for the first, 718000 M⁻¹ s⁻¹ for the second.

With B3 the kon was 1.31e+06 M⁻¹ s⁻¹.

B1 and B2 are within 1.5-fold of each other in t½: 1.08 h for the first, 1.18 h for the second.

In the case of B3, the t½ is reported as 0.117 h.

Target: T2, human ACVR1 extracellular domain expressed with a C-terminal mouse IgG2a Fc tag (human)
T2 construct: also called hACVR1-mFc; REGN3112
T2 chain: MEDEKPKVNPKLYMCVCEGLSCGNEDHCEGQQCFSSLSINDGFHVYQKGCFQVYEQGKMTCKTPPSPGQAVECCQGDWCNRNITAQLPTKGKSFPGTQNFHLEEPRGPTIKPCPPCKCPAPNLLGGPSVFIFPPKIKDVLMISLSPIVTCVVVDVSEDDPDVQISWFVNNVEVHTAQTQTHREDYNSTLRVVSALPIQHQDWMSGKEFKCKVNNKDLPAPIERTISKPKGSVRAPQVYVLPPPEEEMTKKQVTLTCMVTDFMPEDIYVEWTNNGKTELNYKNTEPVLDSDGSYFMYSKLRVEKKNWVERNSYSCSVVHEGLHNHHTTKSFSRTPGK
Experiment: SPR Biacore T200, mAb captured by anti-human Fc, hACVR1-mFc injected, 37C
Description: as §1, §2

Going from B1 to B2, the “100 nM Ag Bound (RU)” value falls from 142 RU to 141 RU.

For B3, the “100 nM Ag Bound (RU)” value was 145 RU.

B1 and B2 are within 1.5-fold of each other in Kd: 0.0478 nM for the first, 0.0481 nM for the second.

Binder B3 has a Kd of 0.191 nM.

B1 and B2 are within 1.5-fold of each other in koff: 5.65e-05 s⁻¹ for the first, 5.36e-05 s⁻¹ for the second.

Binder B3 has a koff of 0.000357 s⁻¹.

B1 and B2 are within 1.5-fold of each other in kon: 1.18e+06 M⁻¹ s⁻¹ for the first, 1.11e+06 M⁻¹ s⁻¹ for the second.

B3 showed a kon of 1.87e+06 M⁻¹ s⁻¹.

B1 and B2 are within 1.5-fold of each other in t½: 3.4 h for the first, 3.58 h for the second.

Binder B3 has a t½ of 0.533 h.

Target: T3, mouse ACVR1 extracellular domain expressed with a C-terminal myc-myc-hexahistidine tag (mouse)
T3 construct: also called mACVR1-mmh; mACVR1.mmh
T3 chain: T1 chain with M1V, P10Q
Experiment: SPR Biacore T200, mAb captured by anti-human Fc, mACVR1-mmh injected, 37C
Description: as §1, §2

B1 and B2 are the same in “100 nM Ag Bound (RU)” value: 43 RU for the first, 43 RU for the second.

With B3 the “100 nM Ag Bound (RU)” value was 42 RU.

B1 and B2 are within 1.5-fold of each other in Kd: 0.268 nM for the first, 0.226 nM for the second.

In the case of B3, the Kd is reported as 1.24 nM.

B1 and B2 are within 1.5-fold of each other in koff: 0.000181 s⁻¹ for the first, 0.000161 s⁻¹ for the second.

With B3 the koff was 0.00167 s⁻¹.

B1 and B2 are within 1.5-fold of each other in kon: 674000 M⁻¹ s⁻¹ for the first, 713000 M⁻¹ s⁻¹ for the second.

B3 gave a kon of 1.34e+06 M⁻¹ s⁻¹.

B1 and B2 are within 1.5-fold of each other in t½: 1.07 h for the first, 1.2 h for the second.

For B3, the t½ was 0.117 h.
